Experimental data reported in EP4796557A1 (Unovel (Shanghai) Biopharma Co., Ltd., dated 2025).
Where a chain is given by its changes, count along the chain named.

Assays:
antigen protein TF [1] = target: T1, antigen protein TF (UniProt P13726 33-251, limits assumed); experiment: BLI (Fortebio), antibody on ProA sensor, 1:1 model
T1 construct: Soluble TF used in ELISA coating and BLI; also called TF protein; Tissue Factor

antigen protein TF [2] = target: T1, antigen protein TF; experiment: ELISA, TF coated at 1 µg/mL, HRP-Protein A detection
[3] = target: T2, Tissue Factor on MDA-MB-231 cells (UniProt P13726 33-295, limits assumed); experiment: flow cytometry on MDA-MB-231 cells, Alexa Fluor 488 anti-human IgG
T2 construct: whole, on cells
T2 sequence (P13726 33-295 limits assumed): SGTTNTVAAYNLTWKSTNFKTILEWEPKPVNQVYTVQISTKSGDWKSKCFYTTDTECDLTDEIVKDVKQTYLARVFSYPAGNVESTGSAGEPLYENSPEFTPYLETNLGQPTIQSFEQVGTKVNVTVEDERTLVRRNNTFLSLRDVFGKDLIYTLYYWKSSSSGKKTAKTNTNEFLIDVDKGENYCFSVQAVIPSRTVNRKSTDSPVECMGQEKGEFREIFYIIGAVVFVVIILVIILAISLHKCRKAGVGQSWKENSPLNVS

T1 sequence (P13726 33-251 limits assumed): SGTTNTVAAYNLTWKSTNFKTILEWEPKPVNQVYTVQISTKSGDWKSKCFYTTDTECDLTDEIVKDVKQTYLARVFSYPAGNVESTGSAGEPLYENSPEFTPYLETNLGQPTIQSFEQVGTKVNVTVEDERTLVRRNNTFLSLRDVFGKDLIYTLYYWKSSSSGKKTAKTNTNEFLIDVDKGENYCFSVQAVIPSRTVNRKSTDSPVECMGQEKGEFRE

B1: h1849-H2L1 (antibody, human IgG1, kappa, V domains shown)
VH: EVQLVESGGGVVQPGRSLRLSCAASGFTFSDYNMAWIRQAPGKGLEWVAAIIYDGTRTYYRDSVKGRFTISRDNSKSTLYLQMDSLRAEDTAVYYCATGDSYTNFAYWGQGTLVTVSS
VL: EIVLTQSPTFLSASVGDRVTITCRASSSLSYMHWYQQKPGTSPKLLIYETSKLQSGVPSRFSGSGSGTSFTLTIDSLQPEDFATYYCQQGNSYPRTFGGGTKVEIKR
notes: also called humanized anti-TF antibody
With B1 the Kd (antigen protein TF [1]) was 430 pM, the koff (antigen protein TF [1]) was 0.000169 s⁻¹ and the kon (antigen protein TF [1]) was 392000 M⁻¹ s⁻¹. It also gave an EC50 (antigen protein TF [2]) of 0.0155 µg/mL and an EC50 [3] of 1.13 µg/mL.

B2: h1849-H3L3 (antibody, human IgG1, kappa, V domains shown)
VH: B1 VH with D84N
VL: B1 VL with F10S, Q54E, S69D
notes: as for B1
With B2 the koff (antigen protein TF [1]) was under 1e-07 s⁻¹, the kon (antigen protein TF [1]) was 324000 M⁻¹ s⁻¹ and the EC50 (antigen protein TF [2]) was 0.0191 µg/mL. For the same binder, the EC50 [3] was 2.3 µg/mL.
